In assay [1] the target is endogenous neurexin on the surface of immature hippocampal neurons (mouse (endogenous in primary hippocampal neurons)) (UniProt Q9CS84). Description: immunostaining of cells or tissue; cell surface binding assay, apparent Kd: Fc protein at 0-100 nM in HEPES bath solution, 1 h at room temperature, on DIV10 hippocampal neurons transduced with CA10-FLAG lentivirus; Fc signal normalised to neurexin staining.

Assay [2] shares this target. Description: immunostaining of cells or tissue; cell surface binding assay, apparent Kd: Fc protein at 0-100 nM in HEPES bath solution, 1 h at room temperature, on DIV10 hippocampal neurons transduced with control (empty vector) lentivirus; Fc signal normalised to neurexin staining.

Sequence of UniProt Q9CS84 (Q9CS84 31-1514): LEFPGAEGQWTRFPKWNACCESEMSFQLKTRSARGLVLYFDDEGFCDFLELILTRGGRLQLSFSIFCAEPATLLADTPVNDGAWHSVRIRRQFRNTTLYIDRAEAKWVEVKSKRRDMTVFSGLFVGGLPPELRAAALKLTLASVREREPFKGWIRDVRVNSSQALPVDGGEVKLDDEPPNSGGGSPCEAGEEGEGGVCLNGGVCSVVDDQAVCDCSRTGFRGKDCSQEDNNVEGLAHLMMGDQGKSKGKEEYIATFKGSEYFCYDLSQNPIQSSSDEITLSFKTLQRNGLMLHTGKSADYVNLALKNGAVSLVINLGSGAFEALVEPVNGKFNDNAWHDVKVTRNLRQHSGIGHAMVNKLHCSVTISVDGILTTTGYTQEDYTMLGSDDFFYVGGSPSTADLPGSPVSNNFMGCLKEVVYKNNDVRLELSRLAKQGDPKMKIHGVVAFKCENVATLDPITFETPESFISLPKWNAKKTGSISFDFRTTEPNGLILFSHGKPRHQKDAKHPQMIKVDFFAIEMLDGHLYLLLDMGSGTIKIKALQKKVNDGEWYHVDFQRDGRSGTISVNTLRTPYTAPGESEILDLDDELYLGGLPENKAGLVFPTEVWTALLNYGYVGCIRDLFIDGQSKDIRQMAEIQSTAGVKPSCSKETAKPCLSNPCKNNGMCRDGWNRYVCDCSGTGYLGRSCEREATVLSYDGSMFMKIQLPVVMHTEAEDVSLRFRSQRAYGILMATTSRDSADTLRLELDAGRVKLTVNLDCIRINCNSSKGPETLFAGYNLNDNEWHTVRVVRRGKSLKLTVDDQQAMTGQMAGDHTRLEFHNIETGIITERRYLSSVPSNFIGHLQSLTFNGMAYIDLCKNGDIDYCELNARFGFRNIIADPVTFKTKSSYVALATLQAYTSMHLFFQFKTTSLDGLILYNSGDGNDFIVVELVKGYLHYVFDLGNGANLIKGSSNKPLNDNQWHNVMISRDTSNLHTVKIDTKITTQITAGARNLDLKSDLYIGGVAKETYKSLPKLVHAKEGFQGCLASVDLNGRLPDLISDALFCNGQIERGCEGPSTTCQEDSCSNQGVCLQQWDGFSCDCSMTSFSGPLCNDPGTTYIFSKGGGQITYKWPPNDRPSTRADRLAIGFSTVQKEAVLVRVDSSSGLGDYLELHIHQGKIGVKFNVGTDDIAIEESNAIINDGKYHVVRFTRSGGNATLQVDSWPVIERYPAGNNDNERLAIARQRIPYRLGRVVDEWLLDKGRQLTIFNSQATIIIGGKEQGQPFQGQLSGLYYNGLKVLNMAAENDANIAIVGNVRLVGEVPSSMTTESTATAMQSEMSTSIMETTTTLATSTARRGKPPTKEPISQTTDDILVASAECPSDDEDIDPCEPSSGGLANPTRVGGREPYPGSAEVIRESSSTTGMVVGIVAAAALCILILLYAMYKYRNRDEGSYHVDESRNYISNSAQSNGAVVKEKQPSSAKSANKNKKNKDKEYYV

Consider Fc‐tagged Nlgn1 (Fc fusion), for which the Kd in assay [1] was determined as 223 nM; in assay [2] it was 186 nM.

B1: Fc‐tagged LRRTM2 (Fc fusion)
chain: CPPKCRCEKLLFYCDSQGFHSVPNATDKGSLGLSLRHNHITELERDQFASFSQLTWLHLDHNQISTVKEDAFQGLYKLKELILSSNKIFYLPNTTFTQLINLQNLDLSFNQLSSLHPELFYGLRKLQTLHLRSNSLRTIPVRLFWDCRSLEFLDLSTNRLRSLARNGFAGLIKLRELHLEHNQLTKINFAHFLRLSSLHTLFLQWNKISNLTCGMEWTWGTLEKLDLTGNEIKAIDLTVFETMPNLKILLMDNNKLNSLDSKILNSLRSLTTVGLSGNLWECSARICALASWLGSFQGRWEHSILCHSPDHTQGEDILDAVHGFQLCWNLSTTVTVMATTYRDPTTEYTKRISSSSYHVGDKEIPTTAGIAVTTEEHFPEPDNAIFTQR
In the case of B1, the Kd in assay [1] amounted to 35.3 nM; in assay [2], 29.5 nM.

These data come from publication PMC8024894.
